Substrate: CC(=O)c1c(O)cc(O)cc1O
Test: purified protein
Assay type: biochemical, Pseudomonas protegens
Conditions: disproportionation to DAPG, 100 mM potassium phosphate pH 7.5, 35 °C

B1: PpATaseCH (Pseudomonas protegens Pf-5) (protein)
chain: MCARRVAIVSAAYTPKPGSSRVRQTFKEMIVESAYKALKDAKMHPREIQAVAYGYHGEGISEYGGLGPTISDALGISPAPTFMSTANCTSSSVSFQMGHQMVASGEYDIVLCGGFEKMTDHFNYAEYIGSSTECEYDYFLGISHTDAFALATAEYFQKFGYAGREADVLATFGRQMRIYAQNTPTATRYGQPIPSLEVLKNSEACGSMLAWGEASGCAILVAEHLAHKYTDKPVFVRGCAYTGVSHYFGTRFHNPTLHHPGLPKDVGMAVSANSIACAEIAYKKAGITAKDIDVAQVYDLLGAGLIQMESMGICGKGQAGDFVLEGGIALDGQLPLNTDGGNIGRGHASGCDGILHITELFRQLRGESDNQVKGARIGVSQNLGGYAAHNSVIVLSND
notes: PhlABC multi-subunit acyltransferase from codon-harmonized construct, recombinant in E. coli, purified enzyme; with 2,4-diacetylphloroglucinol biosynthesis acyltransferase subunit PhlA; 2,4-diacetylphloroglucinol biosynthesis acyltransferase subunit PhlB
Km: 290 ± 40 µM
Vmax: 4830 µM/min
kcat: 72 ± 8 s⁻¹
kcat/Km: 251000 ± 15000 M⁻¹ s⁻¹

— article PMC6996649, “Rational Engineered C-Acyltransferase Transforms Sterically Demanding Acyl Donors” (ACS Catalysis, 2019)
